Where two headings read alike, the source gives them in different places.
System: R2 protein (R2Bm reverse transcriptase/endonuclease) (Bombyx mori)
Sequence (chain, as listed by the source): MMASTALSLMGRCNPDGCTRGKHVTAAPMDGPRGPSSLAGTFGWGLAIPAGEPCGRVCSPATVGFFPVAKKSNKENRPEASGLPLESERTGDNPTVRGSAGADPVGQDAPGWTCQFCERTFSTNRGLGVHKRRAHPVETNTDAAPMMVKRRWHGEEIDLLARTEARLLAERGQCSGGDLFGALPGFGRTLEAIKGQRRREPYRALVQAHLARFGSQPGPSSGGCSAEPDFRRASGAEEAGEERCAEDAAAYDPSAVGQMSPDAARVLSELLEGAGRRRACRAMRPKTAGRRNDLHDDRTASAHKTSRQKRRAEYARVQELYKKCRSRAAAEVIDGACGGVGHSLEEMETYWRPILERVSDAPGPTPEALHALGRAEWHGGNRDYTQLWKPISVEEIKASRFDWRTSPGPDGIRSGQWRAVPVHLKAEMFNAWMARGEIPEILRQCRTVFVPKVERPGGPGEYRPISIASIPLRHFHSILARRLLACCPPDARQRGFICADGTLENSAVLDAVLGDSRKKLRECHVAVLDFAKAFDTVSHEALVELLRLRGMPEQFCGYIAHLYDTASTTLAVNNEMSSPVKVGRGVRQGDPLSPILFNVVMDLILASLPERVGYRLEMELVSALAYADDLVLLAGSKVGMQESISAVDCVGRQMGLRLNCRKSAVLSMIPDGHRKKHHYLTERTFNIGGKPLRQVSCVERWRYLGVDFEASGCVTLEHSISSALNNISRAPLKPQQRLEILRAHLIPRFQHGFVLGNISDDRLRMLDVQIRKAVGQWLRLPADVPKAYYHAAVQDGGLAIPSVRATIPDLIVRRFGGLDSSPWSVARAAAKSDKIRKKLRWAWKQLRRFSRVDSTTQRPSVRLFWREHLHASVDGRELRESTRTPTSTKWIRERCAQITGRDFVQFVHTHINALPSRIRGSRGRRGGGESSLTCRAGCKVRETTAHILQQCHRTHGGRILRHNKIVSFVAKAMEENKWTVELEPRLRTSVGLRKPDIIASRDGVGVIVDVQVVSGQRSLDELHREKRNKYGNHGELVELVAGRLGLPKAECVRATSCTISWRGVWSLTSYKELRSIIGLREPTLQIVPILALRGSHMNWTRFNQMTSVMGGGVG

## 334 nt vector RNA
RNA-primed reverse transcription relative to 254 nt R2 RNA, template jumps 3.9%
  binding signal: 0.44

## 254 nt R2 3' UTR RNA
RNA-primed reverse transcription without target DNA, template jumps 12.9%
  binding signal: 1

## 183 nt vector RNA
RNA-primed reverse transcription relative to 254 nt R2 RNA, template jumps 15.1%
  binding signal: 0.7

Source: patent US20060281079
